Test results taken from patent US6613358B2, “Sustained-release composition including amorphous polymer” (priority 1998, dated 2003).
“And” between values parts separate entries of the source, which are not always exact repeats. Identical values can stand only once. Peptide text beside a SMILES is read from it.

Legend:
[1] = Partitioning of anionic compounds with arginine esters; type: physicochemical; conditions: for log p: pH 5.5 buffer, 1 mg/mL
Protocol: Stock solutions of the arginine esters were made by first dissolving the powder in 0.1 N HCl to give a 10 mM solution and then raising the pH to a value between 5 and 6. The pH should not be raised above 8.
Anionic compounds were dissolved in pH 5.5 buffer (10 mM bis-tris propane, 10 mM CaCl2, 10 mM KCl). Appropriate amounts of the stock solution of arginine ester (see above), the anionic compound and buffer were mixed so that the final concentration of the anionic material was 1 mg/mL. An equal volume of organic solvent was added, and the samples were vortexed for 15 seconds on high speed. Layers were separated by centrifugation at 4000 rpm for 5 minutes. Concentrations of the anionic material in the aqueous and organic layers were determined by UV spectroscopy on a Beckman DU-64 series spectrophotometer.

[2] = Surface tension, critical micelle concentration; type: physicochemical; conditions: in 0.1 N HCl
Protocol: Surface tension was measured using a Fisher surface tensiometer. Briefly, a platinum iridium ring with a diameter of 6 cm was lowered into the appropriate dilution of detergent in 0.1 N HCl. Surface tension was read at the point where the force on the ring upwards caused the ring to break contact with the liquid surface.

[3] = Solubility of arginine octyl ester powder; type: physicochemical
[4] = Apparent partition coefficient water/1-octanol upon SDS addition
Excerpt: The relative solubilities in two phases is given in terms of an apparent partition coefficient. The apparent partition coefficient is defined as the ratio of the equilibrium concentration in an organic phase to that in an aqueous phase. The actual value of the apparent partition coefficient, P, is dependent on the two solvent systems employed. In all cases herein described, the organic phase is 1-octanol and the aqueous phase is water alone or with a minimal amount of HCl added.
Apparent partition coefficients were measured by dissolving a peptide in 1.25 ml of an aqueous solution. Before SDS addition, the pH was measured on a Beckman pH meter. […] An equal volume of 1-octanol was added and the mixtures agitated, and then left undisturbed for several hours. Prior to analysis, the tubes were spun for 10 minutes at 4000 g. Each layer was removed and the absorbance measured on a Beckman DU-64 UV-visible spectrophotometer using I cm quartz cells. All apparent partition coefficients were corrected for changes in pH with differing SDS concentrations.
Results are described as logarithms of the apparent partition coefficient. A log P value of 0 means that the compound is equally soluble in water and the organic phase. […] All of the log P values reported herein have been corrected for slight changes in solubility with pH.

[5] = Partitioning and dissolution of SDS-insulin complexes in non-aqueous solvents; type: physicochemical; conditions: for Apparent Sol. / Log P: SDS-insulin complex
Excerpt: Dissolution of insulin-SDS complexes in other solvents was investigated as well (Table 1). Precipitates of SDS-insulin complexes were isolated and added to various organic solvents. […] Besides alcohols. SDS-insulin complexes are soluble in N-methylpyrrolidone (NMP), trimethylphosphate (TRIP), polyethylene glycol, ethanol, and t-butanol.

[6] = Thermal denaturation (Tm) following molar ellipticity at 222 nm; type: physicochemical
Excerpt: [define Tm. […] (FIG. 6), which is more than 30 degrees above that observed in water.

[7] = CD spectrometry of protein structure in organic solvent; type: physicochemical; conditions: extracted from 1-octanol into 0.10 M HCl; 53 ug/ml, 5° C.
Protocol: CD spectra were recorded on an Aviv 62DS spectrophotometer equipped with a thermoelectric temperature unit. All temperatures were measured ±0.2° C. Samples were placed in strain-free quartz cells (pathlength of 1 mm) and spectra obtained taking data every 0.25 nm using a three second averaging time, and having a spectral bandwidth of 1 nm.
The pathlength was 1 mm, the sample concentration 53 ug/ml, and the sample temperature 5° C.

[8] = type: physicochemical
Excerpt: Larger proteins can also form complexes with SDS. […] At higher SDS concentrations, hGH redissolves, presumably via micellar solubilization. […] Other proteins can also form complexes with SDS. Bovine pancreatic trypsin inhibitor (BPTI) is a small basic protein (MW 5900) with a well defined and stable structure (Wlodawer et. al. (1984) J. Mol. Biol. 180:301-329, and (1987) J. Mol. Biol. 193:145-156). […] In TMP, the globular structure is compromised, as determined by CD spectroscopy. Apparently, TMP is a strong enough solvent to displace water from the hydration sphere and destabilize the structure of BPTI. This mechanism of protein denaturation has been described in detail by Arakawa and […] (1982) Biochemistry 21:6536-6544. and (1982) Biochemistry 21:6545-6552.

CCRF-CEM cells = assay: Cytotoxicity, MTS cell proliferation assay; type: cell-based, human; conditions: for IC50: Homo sapiens, 2-6 hours exposure, 72 hours incubation, read-out: IC50 (half-maximal growth inhibition)
Protocol: (§1) The cytotoxicity of arginine dodecyl ester was investigated in cell culture with two types of cells (see Cory et al, Cancer Commun., 3, 207-212 (1991)): CCRF-CEM cells, a human T-cell leukemia cell line that grows in suspension (obtained from the American Type Culture Collection, ATCC); and a green monkey kidney cell line (COS-7) that grows in monolayers (also obtained from ATCC). For comparison, the cells were also exposed to […] bromide (DTAB) (Sigma).
(§2) Cells were plated into 96-well plates (Corning) in a total of 200 μL Dulbecco's modified minimal essential medium for COS-7 cells, RPMI 1640 for CEM cells, supplemented with penicillin G (50 U/ml), streptomycin sulfate (50 μg/ml), and 10% fetal calf serum, at 10,000 cells/well for COS-7 and 50,000 cells/well for CEM cells. The plates were incubated at 37° C. for 24 hours after plating. The cells were then exposed to various concentrations of the detergents. Each detergent concentration was used in 8 replicate wells. After 2-6 hours, media/detergent solutions were aspirated, and the wells were washed twice with PBS. For CEM suspension cells, centrifugation of the suspension at 1000× g for 5 min between each wash was required. After washing, 200 μL of fresh medium were added, and the cells were incubated for 72 hours. After 72 hours, cell proliferation was determined using the Promega CellTiter 96 AQueous Non-Radioactive Cell Proliferation Assay.

COS-7 cells [9] = assay: Cytotoxicity, MTS cell proliferation assay; type: cell-based, green monkey
Protocol: as §1
as §2, with “After washing, 200 μL of fresh medium were added, and the cells were incubated for 72 hours.” left out, “Assay. […]” for “Assay.”

COS-7 cells [10] = assay: Transfection of plasmid pRSV400luc, luciferase activity; type: cell-based, green monkey; conditions: without liposomes or helper lipids; serum-containing medium
Excerpt: The plasmid used was pRSV400luc. It was obtained from Dr. David Gordon Div. Endocrinology, University of Colorado School of Medicine, Denver, Colo. It was propagated in Escherichia coil strain DH5a (ATCC), isolated by a standard alkaline-SDS Iysis procedure, and purified twice by isopycnic centrifugation on CsCl gradients (Sambrook et al, Molecular Cloning: A Laboratory Manual (Cold Spring Harbor Laboratory) (1989). COS-7 cells at approximately 50,000 cells per 60 mm diameter plate (Falcon) were used for transfection. Control experiments were done with Lipofectamine (GIBCO/Life Technologies, Gaithersburg, Md.).
In 200 total μl of serum-free medium, plasmid (20 μg) and Lipofectamine or arginine dodecyl ester were mixed and allowed to interact for 45 minutes. […] Plates with cells were washed with serum-free medium. Then, 1 mL serum-free medium was added to plates already containing 2 mL serum-free medium and the plates were incubated at 37° C. for 4 hours. […]
After allowing cells to grow and express gene product for 36-50 hours, the cells were harvested. […] Intensity of luminescence should be proportional to the amount of expressed luciferase and, therefore, the efficiency of transfection. “Background” is the reading from just the substrate mixture on the luminometer before addition of cell lysate. […] Any reading over 100 units is considered significant.

[11] = Melting point of SDS:insulin ion pairs in 1-octanol (CD signal and absorbance at 222 nm); type: physicochemical
Protocol: Equal volumes of octanol were added to each SDS:insulin solution to partition the insulin into the octanol phase. […] Both circular dichroism (CD) signal and light scattering (as measured by changes in absorbance) were measured at 222 nm and the melting point determined by an inflection point in the measured scan.

[12] = organic solvent Propylene Glycol
[13] = organic solvent Trifluoroethanol
[14] = organic solvent Trimethyl phosphate

bovine serum albumin: protein tested for partitioning with arginine dodecyl ester
partitioning into octanol layer ([1]; arginine dodecyl ester added, solutions turned cloudy): none would partition into octanol layer

CCCCCCCCOC(=O)[C@@H](N)CCCNC(=N)N [arginine octyl ester]
critical micelle concentration (cmc) [2]: about 6 mM and ~2.2 mg/ml
dissolution in HCl [3]: would only dissolve in 0.1 N or stronger HCl
solubility in water [3]: insoluble
solubility in organics ([3]; alcohols, hydrocarbons, aromatics, DMF and pyridine): insoluble

Gly-Phe-NH2
partitioning of SDS complex into 1-octanol ([4]; pH 7, 1:1 complex with SDS): readily partitions into 1-octanol

insulin
Apparent Sol. ([5]; organic solvent 1-Chlorooctane): insoluble
Log P ([5]; organic solvent 1-Chlorooctane): not detectable
Apparent Sol. ([5]; organic solvent 1-octanol): ≧1.0 mg/ml
Log P ([5]; organic solvent 1-octanol): ≧1.2
Log P ([5]; organic solvent Acetone): miscible
Apparent Sol. ([5]; organic solvent CCl4): insoluble
Log P ([5]; organic solvent CCl4): not detectable
Apparent Sol. ([5]; organic solvent CH2Cl2): insoluble
Log P ([5]; organic solvent CH2Cl2): not detectable
Apparent Sol. ([5]; organic solvent DMF): ≧1.0 mg/ml
Log P ([5]; organic solvent Dimethoxyethane): not detectable
Apparent Sol. ([5]; organic solvent Ethanol): ≧1.0 mg/ml
Log P ([5]; organic solvent Ethanol): miscible
Apparent Sol. ([5]; organic solvent Ether): insoluble
Log P ([5]; organic solvent Ether): not detectable
Apparent Sol. ([5]; organic solvent Ethyl acetate): insoluble
Log P ([5]; organic solvent Ethyl acetate): miscible
Apparent Sol. ([5]; organic solvent Hexane): insoluble
Log P ([5]; organic solvent Hexane): not detectable
Apparent Sol. ([5]; organic solvent Methanol): ≧1.0 mg/ml
Log P ([5]; organic solvent Methanol): miscible
Apparent Sol. ([5]; organic solvent Mineral Oil): insoluble
Log P ([5]; organic solvent Mineral Oil): not detectable
Apparent Sol. ([5]; organic solvent NMP): ≧1.0 mg/ml
Log P ([5]; organic solvent NMP): miscible
Apparent Sol. ([5]; organic solvent PEG 400): ≧0.2 mg/ml
Log P ([5]; organic solvent PEG 400): miscible
Apparent Sol. [5, 12]: ≧0.5 mg/ml
Log P [5, 12]: miscible
Log P ([5]; organic solvent THF): miscible
Apparent Sol. ([5]; organic solvent TMP): ≧0.2 mg/ml
Log P ([5]; organic solvent TMP): miscible
Apparent Sol. [5, 13]: ≧0.5 mg/ml
Log P [5, 13]: miscible
Apparent Sol. [5, 14]: ≧0.15 mg/ml
Log P [5, 14]: miscible
Apparent Sol. ([5]; organic solvent i-Propanol): ≧1.0 mg/ml
Log P ([5]; organic solvent i-Propanol): miscible
Tm in 1-octanol above that observed in water [6]: more than 30 degrees
Tm of thermal denaturation ([6]; in 1-octanol (SDS complex), molar ellipticity at 222 nm): 98 °C
Tm of thermal denaturation ([6]; in aqueous solution): about 65 °C
structure by CD after extraction back into aqueous phase [7]: overall structure similar to that of native insulin

NCC(=O)N[C@@H](Cc1ccccc1)C(=O)O [Gly-Phe] (H-Gly-Phe-OH)
enhancement of partition coefficient with SDS ([4]; neutral pH (zwitterionic form)): little enhancement of the partition coefficient is observed
partitioning with SDS ([4]; pH 3): mirrors the marked increase seen for Gly-PheNH2

hGH: human growth hormone
solubility of SDS precipitate in 1-octanol [8]: not found to be soluble
aqueous behaviour on addition of SDS ([8]; pH 2): precipitates from aqueous solution
aqueous solubility on addition of SDS ([8]; pH 7.8): not affected

CCCCCCCCCCCCCC[N+](C)(C)C [DTAB, tetradecyltrimethylammonium bromide, reference compound]
IC50 (CCRF-CEM cells): 20 µM
IC50 (COS-7 cells [9]; Chlorocebus sabaeus, 2-6 hours exposure, 72 hours incubation, read-out: IC50 (half-maximal growth inhibition)): 80 µM

NC(=O)CC[C@@H]1NC(=O)[C@H](Cc2ccccc2)NC(=O)[C@H](Cc2ccc(O)cc2)NC(=O)[C@@H](N)CSSC[C@@H](C(=O)N2CCC[C@H]2C(=O)N[C@@H](CCCN=C(N)N)C(=O)NCC(N)=O)NC(=O)[C@H](CC(N)=O)NC1=O [AVP, 8-Arg-vasopressin]
log p ([4]; pH 7): > 1
increase of apparent partition coefficient ([4]; upon stoichiometric SDS addition, water/1-octanol): nearly four orders of magnitude

Cc1ccc(S(=O)(=O)[O-])cc1.[Na+] [p-toluenesulfonic acid, sodium salt]
log p ([1]; Ester C8 (arginine octyl ester), solvent isooctane): −2.2
log p ([1]; Ester C8 (arginine octyl ester), solvent octanol): −0.353
log p ([1]; Ester C12 (arginine dodecyl ester), solvent octanol): −0.336
log p ([1]; Ester none, solvent isooctane): −2.7
log p ([1]; Ester none, solvent octanol): −1.62

CCCCCCCCCCCCOC(=O)[C@@H](N)CCCNC(=N)N [arginine dodecyl ester]
critical micelle concentration (cmc) [2]: approximately 0.3 mM and ~0.10 mg/ml
toxicity relative to DTAB (CCRF-CEM cells): seven-fold less toxicity
IC50 (CCRF-CEM cells): 150 µM
transfection of the plasmid (COS-7 cells [10]): promoted transfection of the plasmid in a concentration and time dependent manner
toxicity relative to DTAB (COS-7 cells [9]): approximately two-fold less toxicity

insulin-SDS complex: hydrophobic ion pair complex of insulin with sodium dodecyl sulfate
solubility in organic solvents [5]: soluble
melting point in octanol (apparent maximum) ([11]; 6:1 SDS:insulin molar ratio, 200 ug/ml): about 116 °C
melting point in octanol, absorbance scan at 222 nm ([11]; 9:1 SDS:insulin molar ratio): 106 °C
melting point in octanol, CD scan at 222 nm ([11]; 9:1 SDS:insulin molar ratio, maxima of first derivative): 106 °C
structure after prolonged heating ([6]; in 1-octanol, 70° C. for more than 1 hour): appears to maintain its native structure
